Results taken from the supplement of paper PMC11780869.

System: Bacillus subtilis
Assay: cleaved RNA product abundance (RNA/gDNA barcode ratio) relative to median wild-type variant (ratio to wild type); higher = more accumulation of the downstream cleavage product
In short: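 Reporter mRNAs (truncated aprE or tetM) carrying barcoded, mutagenized RNase Y cleavage-site windows were made from oligos with a 9% error rate and integrated into the B. subtilis chromosome. Cultures grew in LB at 37°C from OD600 0.0003 to 0.3. Cleaved RNA was gel-selected, reverse transcribed and barcode-sequenced alongside genomic DNA barcodes, with UMI collapsing. Cleaved product abundance is the RNA:gDNA barcode ratio per variant, scaled to the median wild-type variant.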

[1] = experiment (reporter, strain, medium): exp 4a: truncated aprE reporter, strain BJT201 with 2% xylose (RNase J1 expressed), cleavage site: cggR-gapA (positions -7 to +36 mutated)
[2] = experiment (reporter, strain, medium): exp 2b: truncated aprE reporter, strain BJT200, cleavage site: cggR-gapA (positions -7 to +36 mutated)
[3] = experiment (reporter, strain, medium): exp 8a: truncated aprE reporter, strain BJT201 with 2% xylose (RNase J1 expressed), cleavage site: glnRA (positions -5 to +31 mutated)

| Sequence | cleaved RNA product abundance [1] | cleaved RNA product abundance [2] | other results |
| --- | --- | --- | --- |
| ACAGACGAAGGAGCCGCAAAGAAGTTATAAAGGGATGAATAATCCCTCTATATAAATATCTCTCACTTATTTAAA | 0.941 | – | – |
| ACAGACGAAGGAGCCGCAAAGAAATTATTATGGGATGAATAATCCCTCAATATAAATATCTCTCACTTATTTAAA | 0.277 | – | – |
| ACAGACGAAGGAGCCGCAAAGAAGTTATTAAGGGATCAATAATCCCTAAATATAAATATCTCTCACTTATTTAAA | 0.657 | 0.551 | – |
| ACAGACGAAGGAGCCGCAAAGAAGTTATTAAGGGATGAATAATCCCCCTATATAAATATCTCTCACTTATTTAAA | 0.151 | – | – |
| ACAGACGAAGGAGCCGCAAAGAAGTTATTAAGGGATGAATATTCCCTTAATATAAATATCTCTCACTTATTTAAA | 0.526 | 1.01 | – |
| ACAGACGAAGGAGCCGCAAAGTAGTTATTAAGGGATGAATAATCCCACAATATAAATATCTCTCACTTATTTAAA | 0.223 | 0.199 | – |
| ACAGACGAAGGAGCCGCAAAGAAGTTATTAAGGGATGAATACTCCCTCAATATAAAAATCTCTCACTTATTTAAA | 0.819 | 0.511 | – |
| ACAGACGAAGGAGCCGCAAAGAAGTTATTATGGGATGAATAATCTCTCAATATAAATATCTCTCACTTATTTAAA | 0.285 | 0.224 | – |
| ACAGACGAAGGAGCCGCAATGAAGTTATTAAGGGATGAATAAACCCTCAATATAAATATCTCTCACTTATTTAAA | 0.454 | 0.647 | – |
| CGACATGTCCCGCTTCTTTCATTAATCAGTTAGCAACTGTTTTGATATATACATTTACCTTTTAAGAGGAGGAAT | – | – | cleaved RNA product abundance [3]: 0.648 |
| ACAGACGAAGGAGCCGCAAAGAAGTTATTTAGGGATGAATAATCCCTCAATATACATATCTCTCACTTATTTAAA | 0.312 | – | – |
| ACAGACGAAGGAGCCGCAAAGAAATTATTAAGGGATGTATAATCCCTCAATATAAATATCTCTCACTTATTTAAA | 0.789 | 0.711 | – |
| CGACATGTCCCGCTTCTTTCATTAATCTGTTAGGAACTGTTTTGCTATATACATTTACCTTTTAAGAGGAGGAAT | – | – | cleaved RNA product abundance [3]: 0.268 |
| ACAGACGAAGGAGCCGCAAAGAAGTTATTAAGGGATGAAAAATCCCTCACTATAAATATCTCTCACTTATTTAAA | – | 0.161 | – |
| ACAGACGAAGGAGCCGCACAGAAGTTATTAAGGGATGAACAATCCCTCAATATAAATATCTCTCACTTATTTAAA | 0.614 | – | – |
| CGACATGTCCCGCTTCTTTCATTATTCCGTTAGCAACTGCTTTGCTATATACATTTACCTTTTAAGAGGAGGAAT | – | – | cleaved RNA product abundance [3]: 0.681 |
| CGACATGTCCCGCTTCTTTCATTAATCCGTTAGCAACTGTTTTGCGATATACATTTATCTTTTAAGAGGAGGAAT | – | – | cleaved RNA product abundance [3]: 0.552 |
| CGACATGTCCCGCTTCTTTCATTAATCCGTTAGCAACTGTTTAGCTATATACATTTACTTTTTAAGAGGAGGAAT | – | – | cleaved RNA product abundance [3]: 0.591 |
| ACAGACGAAGGAGCCGCAAAGAAGTTATTAAGGGATGAATAATCCCTCATTATAAATATCTCTCACTTATTTAAA | 0.383 | 0.263 | cleaved RNA product abundance (experiment (reporter, strain, medium): exp 6: tetM reporter, strain 168, cleavage site: cggR-gapA (positions -7 to +36 mutated)): 0.395 |
| CGACATGTCCCGCTTCTTTCATTAATCCATTAGCAACTTTTTTGCTATATACATTTACCTTTTAAGAGGAGGAAT | – | – | cleaved RNA product abundance [3]: 0.569 |
| ACAGACGAAGGAGCCGCAAAGAAGTTATTAAGGGATTAATAATCCCTCAATGTAAATATCTCTCACTTATTTAAA | 0.108 | – | – |
| ACAGACGAAGGAGCCGCAAATACGTTATTAAGGGATGAATAAACCCTCAATATAAATATCTCTCACTTATTTAAA | 0.383 | – | – |
| ACAGACGAAGGAGCCGCAAAGAAGTAATTAAGGGACGAATAATCCCTCAATATAAATATCTCTCACTTATTTAAA | 0.175 | 0.139 | – |
| ACAGACGAAGGAGCCGCAAAGAAGTTATTAAGGGATGAATAATTCCTCAATATAAATGTCTCTCACTTATTTAAA | 0.564 | – | – |
| ACAGACGAAGGAGCCGCAAAGAAGTTATTAAGGGATGAATTAACCCTCAATATAAATATCTCTCACTTATTTAAA | 0.492 | – | – |
| ACAGACGAAGGAGCCGCAAAGAAGTTATTATGGGAAGAATAATCCCTCAATATAAATATCTCTCACTTATTTAAA | 0.246 | 0.159 | – |
| CGACATGTCCCGCTTCTTTCATTAATCCATTAGCAACTGATTTGCTATATACATTTACCTTTTAAGAGGAGGAAT | – | – | cleaved RNA product abundance [3]: 0.89 |

| Sequence | cleaved RNA product abundance [1] | cleaved RNA product abundance [2] | other results |
| --- | --- | --- | --- |
| ACAGACGAAGGAGCCGCGAAGAAGTTATTAAGGGATAAATAATCCCTCAATATAAATATCTCTCACTTATTTAAA | 0.679 | – | – |
| ACAGACGAAGGAGCCGCTAAGAAGTTATTAAGGGATGCATAATCCCTCAATATAAATATCTCTCACTTATTTAAA | 0.814 | 0.968 | – |
| ACAGACGAAGGAGCCGCAAAGAAGTTATTAAGGAATGAATAATTCCTCAATATAAATATCTCTCACTTATTTAAA | 0.872 | 0.756 | – |
| ACAGACGAAGGAGCCGCAAAGAAGTTATTAAGAGTTGAATAATCCCTCAATATAAATATCTCTCACTTATTTAAA | 0.0897 | – | – |
| ACAGACGAAGGAGCCGCAAAGAAGTTATTAAGCGATGAATAATCGCTCAATATAAATATCTCTCACTTATTTAAA | 0.726 | 0.561 | – |
| ACAGACGAAGGAGCCGCAAAGAAGTTATTAAGGGACAAATAATCCCTCAATATAAATATCTCTCACTTATTTAAA | 0.84 | – | – |
| ACAGACGAAGGAGCCGCCAAGAAGTTATTAAGGGATGAATAATCCATCAATATAAATATCTCTCACTTATTTAAA | 0.327 | – | – |
| ACAGACGAAGGAGCCGCAAAGAAATTATTAAGGGATGAATAATCCCCCAATATAAATATCTCTCACTTATTTAAA | 0.465 | – | – |
| CGACATGTCCCGCTTCTTTCATTAATCCGTTAGCAACAGTTTTGCTATATACATTTAGCTTTTAAGAGGAGGAAT | – | – | cleaved RNA product abundance [3]: 0.489 |
| ACAGACGAAGGAGCCGCAAAGAAGTTATTAAGGGATGTATAATCCCTCAATATATATATCTCTCACTTATTTAAA | – | 0.631 | – |
| ACAGACGAAGGAGCCGCATAGAAGTTATTAAGGGATGAATAATCCCACAATATAAATATCTCTCACTTATTTAAA | 0.292 | – | – |
| CGACATGTCCCGCTTCTTTCATTAATCTGTTAGCAACTGTTTTGCTATATACATATACCTTTTAAGAGGAGGAAT | – | – | cleaved RNA product abundance [3]: 0.829 |
| ACAGACGAAGGAGCCGCAATGAAGTTATTAAGGGATGAAAAATCCCTCAATATAAATATCTCTCACTTATTTAAA | 0.548 | – | – |
| CGACATGTCCCGCTTCTTTCATTAATCCGTTAACAACTGTTTTGCTGTATACATTTACCTTTTAAGAGGAGGAAT | – | – | cleaved RNA product abundance [3]: 0.166 |
| CGACATGTCCCGCTTCTTTCATTAATCCGTTAACATCTGTTTTGCTATATACATTTACCTTTTAAGAGGAGGAAT | – | – | cleaved RNA product abundance [3]: 0.25 |
| CGACATGTCCCGCTTCTTTCATTAATCCGTTATCAACTGTTTTGCTTTATACATTTACCTTTTAAGAGGAGGAAT | – | – | cleaved RNA product abundance [3]: 0.202 |
| ACAGACGAAGGAGCCGCAAAGAAGTTATTTAGGGATGAATAATTCCTCAATATAAATATCTCTCACTTATTTAAA | 0.405 | – | – |
| ACAGACGAAGGAGCCGCAAAGAAGCTAATAAGGGATGAATAATCCCTCAATATAAATATCTCTCACTTATTTAAA | 0.286 | 0.247 | – |
| ACAGACGAAGGAGCCGCAAAGAAGTTATTAATGGATGAATAATCCCTCATTATAAATATCTCTCACTTATTTAAA | 0.201 | – | – |
| CGACATGTCCCGCTTCTTTCATTAATCCGTTAGCAACTGTTTTACTATATACATTTACTTTTTAAGAGGAGGAAT | – | – | cleaved RNA product abundance [3]: 0.621 |
| CGACATGTCCCGCTTCTTTCATTAATCCGTTAGCAACTGTTTTCCTATATACATTTACATTTTAAGAGGAGGAAT | – | – | cleaved RNA product abundance [3]: 0.549 |
| ACAGACGAAGGAGCCGCAAAGAACTTATGAAGGGATGAATAATCCCTCAATATAAATATCTCTCACTTATTTAAA | – | 0.274 | – |
| CGACATGTCCCGCTTCTTTCATTAATACGTTAGCAACTGTTTTGCTATAAACATTTACCTTTTAAGAGGAGGAAT | – | – | cleaved RNA product abundance [3]: 0.505 |
| ACAGACGAAGGAGCCGCAAAGAAGTTATAAAGGGATGAATAATCCCTCAATATAAATATTTCTCACTTATTTAAA | 0.51 | – | – |
| CGACATGTCCCGCTTCTTTCATTAATCCGTTAGCAACTGTTTTGCTATATACATTTATGTTTTAAGAGGAGGAAT | – | – | cleaved RNA product abundance [3]: 0.888 |
| ACAGACGAAGGAGCCGCAAAGAAGTTATGAAGGGACGAATAATCCCTCAATATAAATATCTCTCACTTATTTAAA | 0.318 | – | – |
| ACAGACGAAGGAGCCGCAAAGAAGTTATTAAGTGATGAATAATCCCTCAATATAAACATCTCTCACTTATTTAAA | 0.116 | – | – |
